The test has as its target 14-3-3γ (UniProt P61981). Briefly: co-immunoprecipitation and immunoblot. As to conditions: reference: wild-type Flag-PP1α; sites S224,T226.

Turning to PP1α (from UniProt P62136) S224A/T226A, the “binding against the reference” value is given as “weaker”.

(Values after paper PMC5768788.)
